Reference: patent US20240352105A1, “COMPOSITIONS AND METHODS FOR NEUTRALIZING ANTIGENS” (PACAGEN, INC, priority 2023, published 2024)

Tests used:
[1] = Thermostability (Tm, Tonset, Tagg) by Nanotemper DSF; assay type: physicochemical; parameters: key to Tm2 / Tagg / Tm1 / Tm / Tm3 / Tonset / Tonset ø (mean) / Tagg ø (mean): temperatures in °C; settings: for Tm1: first melting point; for Tm2: second melting point; for Tm: single melting point
Outline: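 Isolated VHH clones were heated from 20 °C to 95 °C at 1 °C/min using DSF. Tm, Tonset and Tagg were derived from the thermal curves. Where several melting transitions occurred, each was reported in order (Tm1, Tm2, etc.).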

Fel D1 = biological target: T1, Fel D1 (Felis catus, UniProt P30438); assay: ELISA binding assay of anti-Fel d1 VHH clones on Fel D1 epitopes; parameters: species or system cat
T1 construct: made in house; host or cells: chemically synthesized peptides
Protocol: 2 microgram per milliliter (μg/mL) target antigen is coated in a 96-well plate and ELISA assay is performed after incubation with candidate VHHs. The binding EC50 of each clone is calculated using Prism GraphPad. The positive control antibody is involved as an internal control.
Four distinct epitopes of Fel D1 were selected to be used for further identification. Peptides were synthesized for the four epitopes for VHH identification.
Isolated VHH clones were further validated by performing an ELISA assay as described in Example 1. Binding results are shown in FIG. 15B-15D for the epitope of SEQ ID NO: 61. Binding results are shown in FIG. 16 for the epitope of SEQ ID NO: 59. Binding results are shown in FIG. 17A-17E for the epitope of SEQ ID NO: 60. Binding results are shown in FIG. 18 for the epitope of SEQ ID NO: 58.

[2] = Average of two replicates, anti-Fel d1 VHH
[3] = Average of two replicates, anti-Fel d1 VHH, in °C (unit assumed)
[4] = Replicate 1, in °C (unit assumed)
[5] = Replicate 2, in °C (unit assumed)
[6] = anti-Fel d1 VHH, in °C (unit assumed)
[7] = Epitope Recognized ENARILKNCVDAKM (SEQ ID NO: 61)
[8] = Epitope Recognized AKMTEEDKENALS (SEQ ID NO: 60)

B1: SDAB22110-1-1-B9-1: anti-Fel d1 VHH clone, SEQ ID NO: 50 (protein)
VHH: DVQLVESGGGWVQPGGSLRLSCAASGFTFTSYALSWVRQAPGKGLEWVSLADARGTSTTYADSVKGRFTISKDNPRNTLYLLMNSLKPEDTAVYYCTKGFDGNWYPDYDYWGQGTQVTVSS
For B1, the “Tagg ø (mean)” value [1, 2] was 41.73, the “Tonset ø (mean)” value [1, 2] was 42.07 and the “Tm ø (mean), first melting point (Tm1)” value [1, 3] was 54.03. For the same molecule, the “Tm ø (mean), second melting point (Tm2)” value [1, 3] was 63.20, the Tagg ([1]; Replicate 1) was 41.73 and the Tonset ([1]; Replicate 1) was 42.11. The “Tm, first melting point (Tm1)” value [1, 4] was 53.95, the “Tm, second melting point (Tm2)” value [1, 4] was 63.26 and the Tagg ([1]; Replicate 2) was 41.73. The Tonset ([1]; Replicate 2) was 42.04, the “Tm, first melting point (Tm1)” value [1, 5] was 54.10 and the “Tm, second melting point (Tm2)” value [1, 5] was 63.15. The Tagg ([1]; anti-Fel d1 VHH) was 41.73, the “aggregates” value ([1]; anti-Fel d1 VHH) was “Possible” and the Tm1 [1, 6] was 54.03. It also gave a Tm2 [1, 6] of 63.20 and an EC50 (Fel D1; [7]) of 14.440 µg/mL.

B2: SDAB22110-3-2-H08: anti-Fel d1 VHH clone, SEQ ID NO: 53 (protein)
VHH: QVQLVESGGGLVQPGGSLRLSCAASGFTFSRKGMSWYRQVPGKEREWVARIYSTGEKTDYADSVKGRFTISRDNAKNMVYLDMNSLKPEDTAVYYCKAWGYEYWNQGTQVTVSS
In the case of B2, the “Tagg ø (mean)” value [1, 2] is reported as 42.30, the “Tonset ø (mean)” value [1, 2] is reported as 37.18 and the “Tm ø (mean), first melting point (Tm1)” value [1, 3] is reported as 47.50. For the same molecule, the Tagg ([1]; Replicate 1) was 42.41, the Tonset ([1]; Replicate 1) was 37.03 and the “Tm, first melting point (Tm1)” value [1, 4] was 47.46. The Tagg ([1]; Replicate 2) was 42.19, the Tonset ([1]; Replicate 2) was 37.34 and the “Tm, first melting point (Tm1)” value [1, 5] was 47.53. The Tagg ([1]; anti-Fel d1 VHH) was 35.68, the Tm [1, 6] was 42.43 and the EC50 (Fel D1; [8]) was 5.024 µg/mL.

B3: SDAB22110-4-3-E05: anti-Fel d1 VHH clone, SEQ ID NO: 55 (protein)
VHH: QVQLVESGGGLVQPGGSLRLSCVGSGFTFSQYAMRWYRQVPGKARELVAAISRSGDFMYYADSVKGRFTISRDNVKSAVILQMNSLKPEDTAVYYCYGQATISDTLWGQGTQVTVSS
With B3 the “Tagg ø (mean)” value [1, 2] was 40.93, the “Tonset ø (mean)” value [1, 2] was 35.67 and the “Tm ø (mean), first melting point (Tm1)” value [1, 3] was 46.83. The Tagg ([1]; Replicate 1) was 40.93, the Tonset ([1]; Replicate 1) was 35.61 and the “Tm, first melting point (Tm1)” value [1, 4] was 47.02. The Tagg ([1]; Replicate 2) was 40.93, the Tonset ([1]; Replicate 2) was 35.73 and the “Tm, first melting point (Tm1)” value [1, 5] was 46.64. For the same molecule, the Tagg ([1]; anti-Fel d1 VHH) was 31.74, the “aggregates” value ([1]; anti-Fel d1 VHH) was “Possible” and the Tm1 [1, 6] was 37.85. The Tm2 [1, 6] was 47.65, the Tm3 ([1]; anti-Fel d1 VHH, third melting point, in °C (unit assumed)) was 62.39 and the EC50 (Fel D1; [8]) was 1.719 µg/mL.

B4: SDAB22110-4-3-H02: anti-Fel d1 VHH clone, SEQ ID NO: 57 (protein)
VHH: QLQLVESGGGLVQPGGSLRLSCEASGFTFKYYTMSWYRQAPGKERELVATITNGDRTNYADSVKGRFTISRDNAKNTLYLQMNSLKPYDTAVYYCNRHLPLLQIWGQGTQVTVSS
For B4, the “Tagg ø (mean)” value [1, 2] was 42.29, the “Tonset ø (mean)” value [1, 2] was 47.54 and the “Tm ø (mean), first melting point (Tm1)” value [1, 3] was 58.58. For the same molecule, the Tagg ([1]; Replicate 1) was 42.24, the Tonset ([1]; Replicate 1) was 47.33 and the “Tm, first melting point (Tm1)” value [1, 4] was 58.60. The Tagg ([1]; Replicate 2) was 42.35, the Tonset ([1]; Replicate 2) was 47.76 and the “Tm, first melting point (Tm1)” value [1, 5] was 58.57. The Tagg ([1]; anti-Fel d1 VHH) was 42.30, the Tm ([1]; anti-Fel d1 VHH) was 47.50 and the EC50 (Fel D1; [8]) was 12.940 µg/mL.

B5: SDAB22110-4-3-G08: anti-Fel d1 VHH clone, SEQ ID NO: 56 (protein)
VHH: DVQLVESGGGLVQPGGSLRLSCAASGFTFSLYYMSWYRQVPGKERELVATITSGTHATTYADSVKGRFTISRDNAKNTVSLQMNSLKREDTGVYYCKRTNAGQDPWGQGTQVTVSS
With B5 the “Tagg ø (mean)” value [1, 2] was 31.74, the “Tm ø (mean), first melting point (Tm1)” value [1, 2] was 37.85, and the “Tonset ø (mean)” value [1, 2] was 27.92. The “Tm ø (mean), second melting point (Tm2)” value [1, 3] was 47.65, the “Tm ø (mean), third melting point (Tm3)” value [1, 3] was 62.92 and the Tagg ([1]; Replicate 1) was 31.71. The “Tm, first melting point (Tm1)” value ([1]; Replicate 1) was 37.77,, the Tonset ([1]; Replicate 1) was 27.93 and the “Tm, second melting point (Tm2)” value [1, 4] was 47.76. The “Tm, third melting point (Tm3)” value [1, 4] was 61.85, the Tagg ([1]; Replicate 2) was 31.77 and the “Tm, first melting point (Tm1)” value ([1]; Replicate 2) was 37.92,. For the same molecule, the Tonset ([1]; Replicate 2) was 27.92, the “Tm, second melting point (Tm2)” value [1, 5] was 47.53 and the “Tm, third melting point (Tm3)” value [1, 5] was 62.92. For the same molecule, the Tagg ([1]; anti-Fel d1 VHH) was 42.29, the Tm [1, 6] was 58.58 and the EC50 (Fel D1; [8]) was 2.215 µg/mL.

B6: SDAB22110-4-3-B02: anti-Fel d1 VHH clone, SEQ ID NO: 54 (protein)
VHH: QVQLVESGGGLVQPGGSLRLSCVASGFTFSFYTMEWYRQAAGKQRELVAGLTASGTTHYADSAKGRFTISRDNAWNTVFLQMNGLKPEDTAVYYCNAYSGYRDYWGQGTQVTVSL
With B6 the “Tagg ø (mean)” value [1, 2] was 35.68, the “Tonset ø (mean)” value [1, 2] was 33.78 and the “Tm ø (mean), first melting point (Tm1)” value [1, 3] was 42.43. For the same molecule, the Tagg ([1]; Replicate 1) was 35.55, the Tonset ([1]; Replicate 1) was 33.78 and the “Tm, first melting point (Tm1)” value [1, 4] was 42.52. For the same molecule, the Tagg ([1]; Replicate 2) was 35.82, the Tonset ([1]; Replicate 2) was 33.78 and the “Tm, first melting point (Tm1)” value [1, 5] was 42.34. For the same molecule, the Tagg ([1]; anti-Fel d1 VHH) was 40.93, the Tm [1, 6] was 46.83 and the EC50 (Fel D1; [8]) was 12.200 µg/mL.

B7: SDAB22110-1-1-E4: anti-Fel d1 VHH clone, SEQ ID NO: 51 (protein)
VHH: QLQLVESGGGLVQPGGSLRLSCTASGFTFSTAGTSWYRQSPGKARKLVAELSRIGGIANYADSVKGRFTISRDNTRNTVYLQMNSLKPEDTAVYYCKVVTNRNYGFTYWGQGTQVTVSS
In the case of B7, the “Tagg ø (mean)” value [1, 2] is reported as 39.61, the “Tonset ø (mean)” value [1, 2] is reported as 40.64 and the “Tm ø (mean), first melting point (Tm1)” value [1, 3] is reported as 50.69. For the same molecule, the Tagg ([1]; Replicate 1) was 39.62, the Tonset ([1]; Replicate 1) was 40.60 and the “Tm, first melting point (Tm1)” value [1, 4] was 50.73. For the same molecule, the Tagg ([1]; Replicate 2) was 39.61, the Tonset ([1]; Replicate 2) was 40.64 and the “Tm, first melting point (Tm1)” value [1, 5] was 50.66. The Tagg ([1]; anti-Fel d1 VHH) was 42.78, the “aggregates” value ([1]; anti-Fel d1 VHH) was “Possible” and the Tm1 [1, 6] was 41.13. The Tm2 [1, 6] was 52.88 and the EC50 (Fel D1; [7]) was 3.305 µg/mL.
